Blank lines part the entries; values can stand above or below the molecule they belong to.
Legend:
[1] = target: TatBC–strepII–His6 complex (E. coli) (UniProt P69425); assay: SPR; Biacore T200; TatBC complex captured (about 300 RU) on polyclonal TatB antibodies coupled to a CM5 chip; precursor as analyte at 1.9–30 μM, injected for 3 min; 25 °C; 20 mM MOPS-NaOH, 200 mM NaCl, 1 mM EDTA, 0.01% GDN, pH 8; 1:1 binding model
[2] = target: TatBC–His6 complex (GDN-solubilized, purified) (E. coli) (UniProt P69425); assay: ITC; TatBC–His6 (45 μM) in the cell; titrant 150 μM HiPIP or 85 μM TorA signal peptide; 25 °C; 20 mM MOPS-NaOH, 200 mM NaCl, 1 mM EDTA, 0.01% GDN, pH 8; one-site model; molar ratio counted per TatC–His6
[3] = target: T1, TatBC–His6 complex (GDN-solubilized, purified) (E. coli, UniProt P69425 1-171; P69423 1-258); assay: as above; details: both partners purified
T1 sequence (looked up) 1: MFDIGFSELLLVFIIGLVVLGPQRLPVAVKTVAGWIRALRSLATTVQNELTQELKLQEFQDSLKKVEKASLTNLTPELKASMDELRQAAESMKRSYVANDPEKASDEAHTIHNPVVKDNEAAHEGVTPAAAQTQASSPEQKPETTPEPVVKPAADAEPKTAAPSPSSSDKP
T1 sequence (looked up) 2: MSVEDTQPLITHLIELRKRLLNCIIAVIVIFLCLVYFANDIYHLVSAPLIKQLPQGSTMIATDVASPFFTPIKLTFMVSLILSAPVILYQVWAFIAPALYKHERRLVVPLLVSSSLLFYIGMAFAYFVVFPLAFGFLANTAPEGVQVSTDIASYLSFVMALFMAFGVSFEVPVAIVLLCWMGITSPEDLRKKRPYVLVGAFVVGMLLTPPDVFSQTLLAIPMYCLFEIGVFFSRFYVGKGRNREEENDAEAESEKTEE

Kd [1]: 4.5 µM
koff [1]: 0.0018 s⁻¹
kon [1]: 400 M⁻¹ s⁻¹
Molecule: E. coli CueO precursor, hexahistidine-tagged (from UniProt P36649 29-516) (natural protein)

Kd [2]: 6 µM
stoichiometry N (HiPIP per TatC) [2]: 0.33
Molecule: high-potential iron–sulfur protein (HiPIP) precursor from Acidithiobacillus ferrooxidans, His6-tagged (natural protein)

Kd [3]: ~0.5 µM
stoichiometry N [3]: 0.44 peptide per TatC
Molecule: SRRRFLAQLGGLTVAGMLGPSLLTPRR [TorA signal peptide (residues 10–36)]

Reference: article PMC5852461 (Biochemistry, 2018)
